Results taken from US20060241020A1, “Protein tyrosine phosphatase inhibitors” (Applied Research Systems ARS Holdings N.V., priority 2002, published 2006).
Positions count from the first letter of the chain named. Entries after “also recorded” stand apart in the source; their conditions may differ. Blank lines part the entries; values can stand above or below the molecule they belong to. Square brackets hold non-standard residues; d marks the D form. Ends that are not written are not given here. pY = N[C@@H](Cc1ccc(OP(=O)(O)O)cc1)C(=O)O

Legend:
[1] = biological target: SHP1 (Homo sapiens, UniProt P29350); settings: reference (40); cited from earlier work
Sequence of SHP1 (P29350 whole entry): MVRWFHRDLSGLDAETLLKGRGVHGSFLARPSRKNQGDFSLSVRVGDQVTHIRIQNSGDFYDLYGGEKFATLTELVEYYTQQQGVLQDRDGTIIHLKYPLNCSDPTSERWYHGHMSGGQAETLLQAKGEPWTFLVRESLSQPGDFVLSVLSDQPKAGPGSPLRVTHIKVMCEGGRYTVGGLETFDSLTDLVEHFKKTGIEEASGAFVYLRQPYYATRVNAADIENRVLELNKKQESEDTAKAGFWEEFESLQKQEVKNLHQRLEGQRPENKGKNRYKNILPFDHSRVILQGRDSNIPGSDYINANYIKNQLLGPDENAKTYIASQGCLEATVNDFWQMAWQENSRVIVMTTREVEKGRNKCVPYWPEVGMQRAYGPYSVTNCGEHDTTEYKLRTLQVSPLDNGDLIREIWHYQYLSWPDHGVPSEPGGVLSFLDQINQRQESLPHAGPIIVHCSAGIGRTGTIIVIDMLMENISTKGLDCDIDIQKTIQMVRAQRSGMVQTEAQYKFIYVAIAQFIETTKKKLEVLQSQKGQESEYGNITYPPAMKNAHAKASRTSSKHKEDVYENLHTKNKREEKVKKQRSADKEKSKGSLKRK

[2] = biological target: T1, PTP-1B DA (trapping mutant) (Homo sapiens, UniProt P18031, D181A); assay: SPOT analysis, membrane peptides probed with radiolabeled PTP; assay type: binding; settings: for SPOT binding to PTP1B trapping mutant, double phosphorylated peptide: two phosphorylated Tyr, compared with single ones; for SPOT binding to PTP1B trapping mutant: 15-mer peptides with phospho-Tyr on membrane
T1 construct: specific primers corresponding to the beginning and the end of the catalytic domain of every PTPs were used; made in house; host or cells: Escherichia coli BL21 (codon +)
T1 sequence (P18031 3-277 D181A limits assumed): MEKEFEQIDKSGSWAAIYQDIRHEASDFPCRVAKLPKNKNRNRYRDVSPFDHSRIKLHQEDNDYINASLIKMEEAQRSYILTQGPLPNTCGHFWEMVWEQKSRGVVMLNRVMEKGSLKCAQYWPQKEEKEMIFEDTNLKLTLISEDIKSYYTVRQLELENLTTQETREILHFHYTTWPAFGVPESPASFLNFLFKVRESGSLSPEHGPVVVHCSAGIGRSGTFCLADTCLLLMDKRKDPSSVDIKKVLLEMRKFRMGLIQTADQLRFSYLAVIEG
Experimental: (§1) Labelling of GST-PTP for the SPOT analysis was performed as follows: 2 to 5 μg of GST fusion proteins were bound to glutathion-sepharose beads (Amersham Pharmacia Biotech) at 4° C. After washes GST fusion proteins were radiolabeled by 50 units of protein kinase from bovine heart (Sigma) in presence of 35 μCi of (γ-32P) ATP in PKA buffer (20 mM Tris pH 7.5, 100 mM NaCl, 12 mM MgCl2, 1 mM DTT) for 30 minutes on ices. After washes, fusion proteins were eluted from beads by 10 mM free glutathione in 50 mM Tris, pH 8.0 (28).
(§2) Peptides were manually synthesized on derivatized cellulose membrane provided by Sigma-Genosys, which also provided the 20 Fmoc-amino acids active esters. Fmoc-phosphotyrosines from Novabiochem (#04-12-1156) were incorporated in presence of the coupling reagent, N,N′-Diisopropylcarbodiimide (DIC; Sigma) and hydroxybenzotriale (HOBt; Fluka; Espanel et al., submitted).
(§3) Membranes were blocked (at least 2 hours) and probed at 4° C. in Western wash buffer (10 mM Tris, pH 7.4, 0.1% Triton X-100 and 150 mM NaCl)+SPOT blocking buffer (Sigma-Genosys). After 2 hours, membranes were washed several times in Western wash buffer and were autoradiographed.

[3] = test system: PTP-Sap1 R88N; assay: as above; assay type: binding; settings: 15-mer peptides with phosphotyrosine on membrane
Experimental: as §1, §2, §3

[4] = biological target: T2, PTP1B trapping mutant (Homo sapiens, UniProt P18031, D181A); assay: ELISA of phosphorylated phage clones on coated GST-PTP; assay type: binding; settings: PTP1B selected phage clones, src-phosphorylated
T2 construct: These two restriction sites were used to clone the catalytic domain in frame into a pGEX4TK vector (Pharmacia); made in house; host or cells: Escherichia coli BL21 (codon +)
T2 sequence (P18031 3-277 D181A limits assumed): T1 sequence (P18031 3-277 D181A limits assumed)
Experimental: (§4) Single clones were amplified as described previously. The coating was done with GST-PTP or GST alone in PBS (2 μg per well in a 96 well plate format). Phosphorylation of the phages was performed following the described protocol (with and without 3 U of src kinase, in order to check the phospho-Tyr specificity of the recognition, thus be sure that positives were catalytic domain specific as shown in (30)) and during this process, each well was blocked with a solution of 5% fat free powder milk in PBS. Wells were washed 5 times in PBS-Tween® 0.5% and phages were incubated with the PTP-GST or GST in 100 μl Trapping Buffer (20 mM Tris pH 7.5, 150 mM NaCl and 1 mM EDTA) for 2 hours at 4° C. Wells were extensively washed and blocked for 1 hour in PBS-5% Milk.

[5] = biological target: T2, PTP1B trapping mutant; assay: Panning of the tyrosine-biased phage library and sequencing of trapped clones; assay type: binding; settings: after three pannings, sequenced trapped phages
Experimental: (§5) Phages (10^9-10^10) were incubated for three hours at 30° C. in the kinase buffer (25 mM Tris pH7.5, 5 mM MgCl2, 2.5 mM MnCl2, 2.5 mM DTT and 1 mM ATP) in a total volume of 20 μl. […] Therefore, the total library was phosphorylated and passed through an antiPTyr column (Upstate). The bound phages were eluted with phenylphosphate, and the clones were passed twice again in the column. The amplified Tyrosine-carrying phages were then stocked at 4° C. in TE and used for the trapping experiment (see below). […] Furthermore, no sequences were found twice. […] This was checked following our phosphorylation protocol and using (γ-32P) ATP as a tracer.
(§6) Phages (10^8 to 10^9) were incubated in kinase buffer (20 mM Tris pH7.5, 5 mM MgCl2, 2.5 mM MnCl2, 1 mM ATP, 2.5 mM DTT and with or without 3 Units of src kinase) for 3 hours at 30° C. The p60src, purified from Baculovirus, was purchased from Upstate Biotech. Gluthation-Sepharose beads were pre-coated with 3 μg of either GST or PTP-GST for 4 hours at 4° C. in a solution of Trapping Buffer (20 mM Tris pH 7.5, 150 mM NaCl and 1 mM EDTA) with 1% BSA final. The phages were first pre-cleared using GST-beads for 30 minutes at 4° C., spun down and the supernatant was incubated with the coated PTP-GST for 1.5 hours at 4° C. with a constant shaking. Finally beads were spun down and washed several times (5 times for the first panning, then 10 times) with a solution of PBS with 0.25% Tween® final. Phages were eluted from PTP-GST by an acidic treatment (glycine buffer, pH 2.7) for 10 minutes at RT with a constant shaking, beads were spun down and phages were recovered in the supernatant. One tenth volume of a 1 M Tris pH 9.0 solution was added in order to restore the pH. Phages were finally titred in both fractions (bound and unbound) and the rest of the bound fraction was used to infect XL1 MRF′ Bacteria (Stratagene) following described procedures (24). The day after, cells were scraped and phages were amplified using helper phage M13K07 (Pharmacia) using the manufacturer's procedures.
(§7) When an increase in the number of trapped clones was observed, phages where purified as single clones and colony-PCR was performed using phage primers, forward: 5′ATG AAA AAG TCT TTA GTC CTC3′ and reverse: 5′CAG CTT GAT ACC GAT AGT TGC3′. The PCR products were then purified and sequenced using the same primers. Sequences were read in both direction using SeqmanII Software.

[6] = biological target: T3, WT PTP1B (Homo sapiens, UniProt P18031); assay: Dephosphorylation assay on GST-PEP constructs; assay type: biochemical; settings: not shown
T3 construct: These two restriction sites were used to clone the catalytic domain in frame into a pGEX4TK vector (Pharmacia); GST (N); made in house; host or cells: Escherichia coli BL21 (codon +)
T3 sequence (P18031 3-277 limits assumed): T1 sequence (P18031 3-277 D181A limits assumed) with A179D
Experimental: PEP-GST constructs were prepared as follows: the primers used correspond to the pVIII capsid sequence of M13+two restriction sites (XhoI and NotI): 5′TATCTCGAGTCTTTCGCTGCTGAGGGT GA3′ for the sense and 5′ATAGCGGCCGCTTGCAGGGAGTCAAAGGCC G3′ for the antisense. The DNA of the phage was directly amplified by adding 10^9 phages to the PCR mix. After PCR using Herculase Polymerase (Stratagene), the DNA fragments (100 bp) were purified using Microcon® PCR (Millipore) and gel extraction was performed with Utrafree®-DA (Millipore). The cloning and the protein purification were finally accomplished following the same protocol as for the PTPs, with the only difference that TKB1 (Stratagene) bacteria were transformed and a single colony was grown and induced for protein production and phosphorylation exactly as described by the manufacturer. Again, all constructs were checked by DNA sequencing before protein production.
100 ng of PEP-GST construct was incubated with 10 ng of PTP wild type in PTP buffer (50 mM Hepes pH 7.4, 0.05% Nonidet NP-40 and 1 mM DTT). The reaction was stopped by mixing equal volume aliquots with a solution of 50 mM vanadate at different laps of time. […]

[7] = biological target: T4, Sap1 (Homo sapiens, UniProt Q9HD43); assay: Km of example phosphopeptide substrates (Table IX summary); assay type: biochemical; settings: phosphopeptide as Sap1 substrate
T4 sequence (Q9HD43 820-1079 limits assumed): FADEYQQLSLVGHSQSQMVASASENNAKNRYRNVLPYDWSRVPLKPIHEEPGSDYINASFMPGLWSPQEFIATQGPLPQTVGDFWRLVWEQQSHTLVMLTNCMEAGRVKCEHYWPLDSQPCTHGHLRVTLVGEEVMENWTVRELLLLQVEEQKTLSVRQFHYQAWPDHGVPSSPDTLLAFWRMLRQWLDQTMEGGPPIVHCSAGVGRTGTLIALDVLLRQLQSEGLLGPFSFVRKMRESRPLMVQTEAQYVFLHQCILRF

[8] = biological target: T5, PTP-Sap1 (Homo sapiens, UniProt Q9HD43, D986A); assay: ELISA of phosphorylated phage clones on coated GST-PTP; assay type: binding; settings: PTP-Sap1 selected phage clones, src-phosphorylated
T5 construct: These two restriction sites were used to clone the catalytic domain in frame into a pGEX4TK vector (Pharmacia); made in house; host or cells: Escherichia coli BL21 (codon +)
T5 sequence (Q9HD43 820-1079 D986A limits assumed): T4 sequence (Q9HD43 820-1079 limits assumed) with D167A
Experimental: as §4

[9] = biological target: T5, PTP-Sap1; assay: Panning of the tyrosine-biased phage library and sequencing of trapped clones; assay type: binding; settings: after three rounds, sequenced trapped phages
Experimental: as §5, §6, §7

[10] = biological target: T6, PTP-Sap1DA (Homo sapiens, UniProt Q9HD43, D986A); assay: SPOT analysis, membrane peptides probed with radiolabeled PTP; assay type: binding
T6 construct: specific primers corresponding to the beginning and the end of the catalytic domain of every PTPs were used; made in house; host or cells: Escherichia coli BL21 (codon +)
T6 sequence (Q9HD43 820-1079 D986A limits assumed): T4 sequence (Q9HD43 820-1079 limits assumed) with D167A
Experimental: as §1, §2, §3

Molecule: O.O.O.O.O.O.O.O.O.O=C([O-])[C@@H]1[O][Sb]2([O-])([O][Sb]34([OH])[O][C@H]([C@H](O)CO)[C@H]([O]3)[C@H](C(=O)[O-])[O]4)[O][C@H]([C@H](O)CO)[C@@H]1[O]2.[Na+].[Na+].[Na+] [sodium stibogluconate]
Inhibition of SHP1 [1]: strongly inhibits

Molecule: EFATpYEEYALMDPAK (EFAT[pY]EEYALMDPAK) [Clone 1b-12]
SPOT binding to PTP1B trapping mutant, double phosphorylated peptide [2]: did not seem to react as well as single ones

Molecule: EFEPIpYNAYQVDPAK (EFEPI[pY]NAYQVDPAK) [Clone 1b-6]
SPOT binding to PTP1B trapping mutant [2]: All except two sequences (1b-6 and 1b11) were recognized

Molecule: EFQSPVpYGNFADPAK (EFQSPV[pY]GNFADPAK) [Clone 1b-11]
SPOT binding to PTP1B trapping mutant [2]: All except two sequences (1b-6 and 1b11) were recognized

Molecule: EFQpYZGEYTRGDPAK (EFQ[pY]XGEYTRGDPAK; not fully specified (residue 5)) [Clone 1b-4]
ELISA [4]: not found in ELISA
SPOT binding to PTP1B trapping mutant [2]: confirmed in SPOT; also recorded: best substrate in this assay
SPOT binding to PTP1B trapping mutant, double phosphorylated peptide [2]: binding became more efficient

Molecule: EFpYATYGSAATDPAK (EF[pY]ATYGSAATDPAK) [Clone 1b-1]
Copy in the pool [5]: 4×
SPOT binding to PTP1B trapping mutant, double phosphorylated peptide [2]: did not seem to react as well as single ones
Dephosphorylation of displayed peptide (GST fusion) by WT PTP1B [6]: can dephosphorylate the displayed peptide

Molecule: EFpYGQFpYGPPQDPAK (EF[pY]GQF[pY]GPPQDPAK) [x2]
SPOT binding to PTP-Sap1DA ([10]; 15-mer peptides with phosphotyrosine on membrane): comparable SPOT results for both phosphorylated Tyrosines

Molecule: EFpYGTFAPKPLDPAK (EF[pY]GTFAPKPLDPAK) [Clone 1b-13]
SPOT binding to PTP1B trapping mutant [2]: signal is weaker

Molecule: EFpYNLYEGVMSDPAK (EF[pY]NLYEGVMSDPAK) [Clone 1b-9]
ELISA [4]: not found in ELISA
SPOT binding to PTP1B trapping mutant [2]: confirmed in SPOT

More lines, now with the values ahead:

SPOT binding to PTP-Sap1 R88N [3]: strongest signals
Molecule: EFGATpYGVYTSDPAK (EFGAT[pY]GVYTSDPAK) [Sm-2]

SPOT binding to PTP-Sap1 R88N [3]: strongest signals
Molecule: EFIpYGSFHQTADPAK (EFI[pY]GSFHQTADPAK) [Sm-15]

SPOT binding to PTP-Sap1 R88N [3]: did not bind
SPOT binding to PTP-Sap1 R88N ([3]; listed as sm-8): not recognized
Molecule: EFLpYANVERSSDPAK (EFL[pY]ANVERSSDPAK) [Sm-8]

Km [7]: 7 µM
Molecule: EFpYGAFA/G (chain 1 EF[pY]GAFA; chain 2 EF[pY]GAFG)

ELISA [8]: strongest
Copy in the pool [9]: 2X
SPOT binding to PTP-Sap1DA, doubly phosphorylated ([10]; doubly phosphorylated sequence): weaker signal
Molecule: EFpYGAYSNADLDPAK (EF[pY]GAYSNADLDPAK) [x5]

ELISA [8]: recognized in ELISA
Molecule: EFpYGPVASDASDPAK (EF[pY]GPVASDASDPAK) [x58]

SPOT binding to PTP-Sap1 R88N [3]: strongest signals
Molecule: EFpYGQIGDHLVDPAK (EF[pY]GQIGDHLVDPAK) [Sm-11]

Copy in the pool [9]: 3X
Molecule: EFpYGTFAQSAEDPAK (EF[pY]GTFAQSAEDPAK) [x9]

Copy in the pool [5]: 2×
Molecule: EFpYGTYRGQDSDPAK (EF[pY]GTYRGQDSDPAK) [Clone 1b-14]
